Measurements published in patent US20240092930A1 (MABWELL SHANGHAI BIOSCIENCE, published 2024).

B1: Sacituzumab (antibody, human IgG1, kappa, V domains shown)
VH: QVQLQQSGSELKKPGASVKVSCKASGYTFTNYGMNWVKQAPGQGLKWMGWINTYTGEPTYTDDFKGRFAFSLDTSVSTAYLQISSLKADDTAVYFCARGGFGSSYWYFDVWGQGSLVTVSS
VL: DIQLTQSPSSLSASVGDRVSITCKASQDVSIAVAWYQQKPGKAPKLLIYSASYRYTGVPDRFSGSGSGTDFTLTISSLQPEDFAVYYCQQHYITPLTFGAGTKVEIKR
notes: expressed in HEK293; also called control antibody Sacituzumab; Saituzumab
B2: h23-12-25 (antibody, human IgG1, kappa, V domains shown)
VH: QVQLVQSGAEVKKPGASVKVSCKASGYTFTSYWMHWVRQAPGQGLEWMGEITPSDNYGSYNQKFKGRVTITRDTSTSTAYMELSSLRSEDTAVYYCARGHGNYVSFDYWGQGTLVTVSS
VL: DIQMTQSPSSLSASVGDRVTITCRASQDISNYLNWYQQKPGKAPKLLIYYTSRLESGVPSRFSGSGSGTDFTLTISSLQPEDFATYFCQQGYTLPPYTFGQGTKLEIKR
notes: also called h32-12

Legend:
[1] = molecular target: T1, recombinant human Trop-2-his protein (ACCESSION NO.: NP_002344.2, AA 1-274) (human, UniProt P09758 27-274); assay: ELISA, coated human Trop-2-his 1 µg/ml
T1 construct: range 27-274; also called recombinant human Trop-2 protein; recombinant human Trop-2 extracellular domain; not shown: his tag
T1 sequence (looked up): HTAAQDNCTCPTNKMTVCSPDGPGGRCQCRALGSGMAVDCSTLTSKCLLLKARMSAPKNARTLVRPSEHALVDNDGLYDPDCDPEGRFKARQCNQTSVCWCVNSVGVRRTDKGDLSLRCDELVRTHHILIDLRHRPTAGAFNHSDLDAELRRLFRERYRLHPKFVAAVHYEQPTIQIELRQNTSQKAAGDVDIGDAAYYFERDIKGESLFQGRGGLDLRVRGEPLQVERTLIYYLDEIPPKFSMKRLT
Protocol: (§1) Washed with PBS 3 times, the plates were blocked with the added 5% BSA PBS at 37° C. for 60 min, and then washed 3 times with PBST. Different concentrations of h23-12 (serial dilutions of 14 concentrations obtained through 3-fold serially diluting a solution with an initial concentration of 10 μg/ml), h4-3 (serial dilutions of 12 concentrations obtained through 3-fold serially diluting a solution with an initial concentration of 3 μg/ml), and Sacituzumab (serial dilutions of 12 concentrations obtained through 3-fold serially diluting a solution with an initial concentration of 3 μg/ml) were added into the plates, with each concentration provided in a parallel well. The plates were incubated at 37° C. for 60 min, and then were washed 4 times with PBST. 1:5000 dilution of H1RP-anti-human Fc (Cat.: 109-035-098, Jackson ImmunoResearch) was added into the plates for incubation at 37° C. for 30 min. Afterwards, the plates were washed with PBST 4 times, and TMB substrate was added for color development at 37° C. for 10 min. Then 2M HCl was added to stop reaction; and absorbances at 450 nm and at 630 nm (as reference wavelength) were read, and A450 nm-630 nm values of the wells in the plates were recorded.

[2] = molecular target: T1, recombinant human Trop-2-his protein …; assay: BLI, naked antibody on AHC sensor, Trop-2-his 60 nM, 300 s binding
Protocol: Affinities of the antibodies were determined by an assay including capturing Fc fragments of the antibodies with anti-human IgG Fc capture (AHC) biosensors using Octet QKe system instrument from Fortebio.
For the assay, SN38-labeled antibodies prepared as described above: h23-12-SN38, ch4-3-SN38, ch11-4-SN38, and positive control antibody Sacituzumab-SN38, as well as naked antibodies h23-12, ch4-3, ch11-4, and positive control antibody Sacituzumab were diluted to 4 μg/ml with PBS and allowed to flow through the surface of an AHC biosensor (Cat.: 18-0015, PALL) for 120 s. Recombinant human Trop-2-his protein (ACCESSION NO.: NP_002344.2, AA 1-274) was used as a mobile phase, and its concentration was 60 nM. The binding time was 300 s and the dissociation time was 300 s. When the assay was finished, data from which the response value of blank control had been deducted were fitted to a 1:1 Langmuir binding model using software, and then kinetic constants for antigen-antibody binding were calculated.

[3] = molecular target: T1, recombinant human Trop-2-his protein …; assay: BLI, antibody on AHC sensor, Trop-2-his 60 nM
Protocol: 5-6 days after cell transfection, culture supernatants were purified through ProA affinity chromatography column to obtain different humanized antibodies. Affinities of the obtained antibodies were determined by an assay including capturing Fc fragments of the antibodies with anti-human IgG Fc capture (AHC) biosensors using Octet QKe system instrument from Fortebio. For the assay, each of the humanized antibodies and control antibody Sacituzumab was diluted to 4 μg/ml in PBS, and was allowed to flow through the surface of an AHC biosensor (Cat.: 18-0015, PALL) for 120 s. Recombinant human Trop-2-his protein (ACCESSION NO.: NP_002344.2, AA 1-274) was used as a mobile phase, and its concentration was 60 nM. The binding time was 100 s and the dissociation time was 300 s. When the assay was finished, data from which the response values of blank control had been deducted were fitted to a 1:1 Langmuir binding model using software, and then kinetic constants for antigen-antibody binding were calculated.
Affinities of the antibodies obtained from the combinations of mutants of murine antibody 11-4, chimeric antibody ch11-4 and control antibody Sacituzumab to recombinant human Trop-2-his protein were determined by ForteBio (Table 11).

[4] = molecular target: T1, recombinant human Trop-2-his protein …; assay: ELISA, coated Trop-2-his 0.2 µg/ml
Protocol: Plates were coated with recombinant human Trop-2-his protein (ACCESSION NO.: NP_002344.2, AA 1-274) at a concentration of 0.2 μg/ml overnight at 4° C. and then blocked with 5% BSA for 60 min in a constant temperature incubator at 37° C. Chimeric antibodies ch3-11, ch4-3, ch17-1, ch11-4, and ch23-12 and control antibody Sacituzumab (serial dilutions of 8 concentrations in total obtained through 3-fold serially diluting a solution with an initial concentration of 2 μg/ml) were added into the plates which were then incubated in a constant temperature incubator at 37° C. for 60 min. The plates were washed with PBST 4 times, and 1:5000 dilution of HRP-anti-human Fc (Cat.: 109-035-098, Jackson ImmunoResearch) was added into the plates for reaction for 45 min. TMB (Cat.: ME142, GalaxyBio, Beijing) substrate was added for color development for 15 min, and then 2M HCl was added to stop reaction. Absorbances at 450 nm and at 630 nm (as reference wavelength) were read, and A450 nm-630 nm values of the wells in the plates were recorded.

[5] = molecular target: T2, recombinant cynomolgus Trop-2-his protein (ACCESSION NO.: UniProtKB-A0A2K5UE71, AA 1-272) (cynomolgus, UniProt A0A2K5UE71 1-272); assay: ELISA, coated cynomolgus Trop-2-his 1 µg/ml
T2 construct: The printed range begins at residue 1; not shown: his tag
T2 sequence: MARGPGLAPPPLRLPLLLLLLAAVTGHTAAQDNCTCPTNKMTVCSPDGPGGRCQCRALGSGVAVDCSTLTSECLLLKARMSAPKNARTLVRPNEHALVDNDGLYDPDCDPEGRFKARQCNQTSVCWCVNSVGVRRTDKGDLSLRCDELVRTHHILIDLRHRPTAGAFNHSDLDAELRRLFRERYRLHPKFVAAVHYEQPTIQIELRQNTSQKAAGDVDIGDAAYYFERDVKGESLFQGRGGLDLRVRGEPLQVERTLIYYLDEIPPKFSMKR
Protocol: as §1

Row | Binder | EC50 [1] | Kd [2] | Kd [3] | EC50 [4] | EC50 [5]
1 | B1 | 0.0703 nM | 0.583 nM | 0.784 nM | 0.271 nM | 0.0726 nM
2 | B2 | 0.0473 nM | 0.507 nM |  |  | 0.124 nM
